Reference: article PMC11018352, “Guanidine production by plant homoarginine-6-hydroxylases” (eLife, 2024)

Legend:
At3g50210 (2-ODD-C23.1) = target: T1, At3g50210 (2-ODD-C23.1) (Arabidopsis thaliana, UniProt Q84MB6); assay: inhibition of homoarginine-dependent O2 consumption; type: biochemical; details: 0.5 mM 2-oxoglutarate, pH 7.2, 30 °C
T1 construct: gene 2ODDC23.1
T1 sequence (Q84MB6 1-332): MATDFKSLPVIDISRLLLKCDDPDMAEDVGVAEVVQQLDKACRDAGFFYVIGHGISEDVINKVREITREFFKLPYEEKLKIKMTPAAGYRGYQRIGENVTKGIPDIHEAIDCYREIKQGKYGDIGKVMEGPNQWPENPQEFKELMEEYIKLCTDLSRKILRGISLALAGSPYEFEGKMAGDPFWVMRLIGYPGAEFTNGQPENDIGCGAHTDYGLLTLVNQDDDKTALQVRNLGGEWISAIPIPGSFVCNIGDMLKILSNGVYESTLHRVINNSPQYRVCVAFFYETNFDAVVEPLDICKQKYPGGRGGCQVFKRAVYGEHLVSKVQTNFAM

[1] = target: T2, Din11s (2-ODD-C23.2, short variant of Din11) (Arabidopsis thaliana, UniProt Q8H113); assay: as above; type: biochemical; details: competitive versus homoarginine; 1 mM canavanine, 0.5 mM 2-oxoglutarate, pH 7.2, 30 °C
T2 construct: gene 2ODDC23.2
T2 sequence (Q8H113 26-357): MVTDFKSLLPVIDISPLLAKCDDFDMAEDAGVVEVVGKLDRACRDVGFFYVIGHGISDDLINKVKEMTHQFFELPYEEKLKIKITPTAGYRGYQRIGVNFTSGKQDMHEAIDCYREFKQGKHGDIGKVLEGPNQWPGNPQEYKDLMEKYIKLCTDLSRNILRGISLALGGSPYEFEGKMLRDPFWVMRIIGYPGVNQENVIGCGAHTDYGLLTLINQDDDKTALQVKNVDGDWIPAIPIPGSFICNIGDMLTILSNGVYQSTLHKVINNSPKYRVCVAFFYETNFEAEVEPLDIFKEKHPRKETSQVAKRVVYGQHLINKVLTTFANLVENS

[2] = target: T3, Gm2-ODD-C23 (soybean 2-ODD-C23) (Glycine max, UniProt A0A0R4J5R0); assay: guanidine production in expressing E. coli culture, LC-MS; type: cell-based; details: 1 mM homoarginine in medium, 18 °C overnight
T3 construct: gene 2ODDC23
T3 sequence (A0A0R4J5R0 1-331): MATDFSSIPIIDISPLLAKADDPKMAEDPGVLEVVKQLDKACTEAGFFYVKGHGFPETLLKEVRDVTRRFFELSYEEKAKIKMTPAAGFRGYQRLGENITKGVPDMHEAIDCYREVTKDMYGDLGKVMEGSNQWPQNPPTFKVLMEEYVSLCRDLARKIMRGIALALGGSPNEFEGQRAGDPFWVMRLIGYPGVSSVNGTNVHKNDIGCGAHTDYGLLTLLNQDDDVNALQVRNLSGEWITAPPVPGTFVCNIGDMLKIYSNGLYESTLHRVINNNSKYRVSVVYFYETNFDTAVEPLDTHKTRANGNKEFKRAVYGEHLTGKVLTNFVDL

[3] = target: T4, 2-ODD33 (Os2-ODD33, rice 2-ODD-C23 ortholog) (Oryza sativa, UniProt Q6K332); assay: as above; type: cell-based; details: 1 mM homoarginine in medium, 18 °C overnight
T4 sequence (Q6K332 1-328): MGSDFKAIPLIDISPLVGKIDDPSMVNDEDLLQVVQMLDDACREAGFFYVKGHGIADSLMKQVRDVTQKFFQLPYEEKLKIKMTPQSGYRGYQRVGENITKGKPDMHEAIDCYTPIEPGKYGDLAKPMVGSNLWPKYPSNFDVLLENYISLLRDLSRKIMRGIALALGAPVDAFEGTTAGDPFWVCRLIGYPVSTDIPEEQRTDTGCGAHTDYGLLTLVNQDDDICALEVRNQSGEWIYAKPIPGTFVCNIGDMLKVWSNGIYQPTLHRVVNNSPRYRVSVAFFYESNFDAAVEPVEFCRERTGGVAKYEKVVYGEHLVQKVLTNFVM

[4] = substrate: NC(=O)c1ccc[n+]([C@@H]2O[C@H](COP(=O)(O)OP(=O)(O)OC[C@H]3O[C@@H](n4cnc5c(N)ncnc54)[C@H](O)[C@@H]3O)[C@@H](O)[C@H]2O)c1; assay: NAD+ reduction, spectrophotometric; type: biochemical, Arabidopsis thaliana; details: 1 mM AASA/P6C, pH 7.5, 35 °C, varied: cofactor
[5] = substrate: N[C@@H](CCCC=O)C(=O)O; assay: NAD+ reduction, spectrophotometric; type: biochemical, Arabidopsis thaliana; details: 1 mM NAD+, pH 7.5, 35 °C, substrate is the AASA/P6C equilibrium mixture
[6] = substrate: O=C(O)[C@@H]1CCCC=N1; assay: NADH oxidation, spectrophotometric; type: biochemical, Oryza sativa; details: NADH as electron donor (fixed 1 mM), pH 7.5, 35 °C
[7] = substrate: N=C(N)NCCCC[C@H](N)C(=O)O; assay: O2 consumption, Clark-type electrode; type: biochemical, Arabidopsis thaliana; details: 0.5 mM 2-oxoglutarate, Fe2+, ascorbate, pH 7.2, 30 °C
[8] = substrate: N=C(N)NCCC[C@H](N)C(=O)O; assay: O2 consumption, Clark-type electrode; type: biochemical, Arabidopsis thaliana; details: 0.5 mM 2-oxoglutarate, Fe2+, ascorbate, pH 7.2, 30 °C

Q: `N=C(N)NOCC[C@H](N)C(=O)O` [canavanine] was tested. Which “inhibition of homoarginine-dependent O2 consumption” value (shortened to “inhibition”) (At3g50210 (2-ODD-C23.1); mixed type versus homoarginine, 1 mM canavanine) did it give?
A: the inhibition of At3g50210 was of the mixed type

Q: What about the “inhibition” value [1] of the same molecule?
A: canavanine showed competitive inhibition of the reaction of Din11s with homoarginine

Q: `N=C(N)NCCC[C@H](N)C(=O)O` [arginine] was tested. Which “inhibition” value (At3g50210 (2-ODD-C23.1); competitive versus homoarginine, 1 mM arginine) did it give?
A: we detected a competitive inhibition of Din11s and At3g50210

Q: Which “guanidine production in expressing E. coli culture, LC-MS” value [2] does the source give for `N=C(N)NCCCC[C@H](N)C(=O)O` [homoarginine] here?
A: orthologs from soybean and rice (2-ODD33) mediated homoarginine-dependent guanidine accumulation

Q: What about the “guanidine production in expressing E. coli culture, LC-MS” value [3] of the same molecule?
A: orthologs from soybean and rice (2-ODD33) mediated homoarginine-dependent guanidine accumulation

B1: AtALDH7B4 (At1g54100, AASA-DH) (Arabidopsis thaliana) (protein)
chain: MGSANNEYEFLSEIGLTSHNLGSYVAGKWQANGPLVSTLNPANNQPIAQVVEASLEDYEQGLKACEEAAKIWMQVTAPKRGDIVRQIGDALRSKLDYLGRLLSLEMGKILAEGIGEVQEVIDMCDFAVGLSRQLNGSVIPSERPNHMMLEMWNPLGIVGVITAFNFPCAVLGWNACIALVCGNCVVWKGAPTTPLITIAMTKLVAEVLEKNNLPGAIFTAMCGGAEIGEAIAKDTRIPLVSFTGSSRVGSMVQQTVNARSGKTLLELSGNNAIIVMDDADIQLAARSVLFAAVGTAGQRCTTCRRLLLHESVYDKVLEQLLTSYKQVKIGNPLEKGTLLGPLHTPESKKNFEKGIEVIKSQGGKILTGGKAVEGEGNFVEPTIIEISADAAVVKEELFAPVLYVLKFKSFGEAVAINNSVPQGLSSSIFTRNPENIFRWIGPLGSDCGIVNVNIPTNGAEIGGAFGGEKATGGGREAGSDSWKQYMRRSTCTINYGNELPLAQGINFG
Q: For B1, which Km [4] is on record?
A: 324 ± 17 µM

Q: And the Km [5]?
A: 11.9 ± 1.0 µM

B2: OsP5CR (pyrroline-5-carboxylate reductase from rice) (Oryza sativa Japonica Group) (protein)
chain: MAAPPQPVPAPAAASPEVFRLGFIGPGNLAESIARGVAASGVLPATAIRTAPHRRPERAEAFSSIGAHILETNAQVVDDSDVIVISVKPQIVRQVLVELKPLLSEEKLLVSIAAGIKMEDLQGWSGHRRFIRVMPNTPSAVGQAASVMCLGEMATENDENRVRSLFSAIGKVWTAEEKYFDAVTGLSGSGPAYIFLAIEAMADGGVAAGLPRDLALGLASQTVLGAATMVNKTGKHPGQLKDMVTSPAGTTITGIQELEKGAFRGTLINAVVAATKRCRELSQS
notes: recombinant, purified
Q: B2 was tested. Which Km [6] did it give?
A: 173 ± 18 µM

B3: At3g49630 (2-ODD-C23.3) (Arabidopsis thaliana) (protein)
chain: MATNFKSLLPVIDISPLVVKCDDANMAEDAGVAEVVGKLDRACRDAGFFYVIGHGISEDFIRKVRVMSHQFFELPYEEKLKIKITPAAGYRGYQRIGLNLTNGKQDMHEAIDCYKEFKQGKHGDIGKVMEGANQWPENPQEYKELMEEYIKLCIDLSRNILRGISLALGGSPYEFEGKMLTDPFWIMRILGYPGVNQENVIGCGAHTDYGLLSLINQDDDKTALQVRDLAGDWIPVIPIPGSFVCNIGDMLKILSNGVYESTLHRVINNSPRYRVCVGFFYETNFDAAVEPLDIFKEKYPGKGTSQVFKRVVYGEHLVHKLQTTFQNLVEHS
notes: b44 prints At3g49620, apparently a slip for At3g49630
Q: With B3 as the molecule, how does the Km [7] read?
A: 4600 ± 200 µM

B4: Din11s (2-ODD-C23.2, short variant of Din11) (Arabidopsis thaliana) (protein)
chain: MVTDFKSLLPVIDISPLLAKCDDFDMAEDAGVVEVVGKLDRACRDVGFFYVIGHGISDDLINKVKEMTHQFFELPYEEKLKIKITPTAGYRGYQRIGVNFTSGKQDMHEAIDCYREFKQGKHGDIGKVLEGPNQWPGNPQEYKDLMEKYIKLCTDLSRNILRGISLALGGSPYEFEGKMLRDPFWVMRIIGYPGVNQENVIGCGAHTDYGLLTLINQDDDKTALQVKNVDGDWIPAIPIPGSFICNIGDMLTILSNGVYQSTLHKVINNSPKYRVCVAFFYETNFEAEVEPLDIFKEKHPRKETSQVAKRVVYGQHLINKVLTTFANLVENS
Q: For B4, which Km [7] is on record?
A: 1900 ± 300 µM

Q: And the Km [8]?
A: 6000 ± 5100 µM

B5: At3g50210 (2-ODD-C23.1) (Arabidopsis thaliana) (protein)
chain: MATDFKSLPVIDISRLLLKCDDPDMAEDVGVAEVVQQLDKACRDAGFFYVIGHGISEDVINKVREITREFFKLPYEEKLKIKMTPAAGYRGYQRIGENVTKGIPDIHEAIDCYREIKQGKYGDIGKVMEGPNQWPENPQEFKELMEEYIKLCTDLSRKILRGISLALAGSPYEFEGKMAGDPFWVMRLIGYPGAEFTNGQPENDIGCGAHTDYGLLTLVNQDDDKTALQVRNLGGEWISAIPIPGSFVCNIGDMLKILSNGVYESTLHRVINNSPQYRVCVAFFYETNFDAVVEPLDICKQKYPGGRGGCQVFKRAVYGEHLVSKVQTNFAM
Q: With B5 as the molecule, how does the Km [7] read?
A: 780 ± 150 µM
